Ends that are not written are not given here.
Legend:
[1] = target: HMG20b (human (endogenous in 293T and HeLa)) (UniProt Q9P0W2); assay: co-IP
His-HMG20b = target: T1, His-HMG20b (human, UniProt Q9P0W2 1-317); assay: pull-down
T1 sequence: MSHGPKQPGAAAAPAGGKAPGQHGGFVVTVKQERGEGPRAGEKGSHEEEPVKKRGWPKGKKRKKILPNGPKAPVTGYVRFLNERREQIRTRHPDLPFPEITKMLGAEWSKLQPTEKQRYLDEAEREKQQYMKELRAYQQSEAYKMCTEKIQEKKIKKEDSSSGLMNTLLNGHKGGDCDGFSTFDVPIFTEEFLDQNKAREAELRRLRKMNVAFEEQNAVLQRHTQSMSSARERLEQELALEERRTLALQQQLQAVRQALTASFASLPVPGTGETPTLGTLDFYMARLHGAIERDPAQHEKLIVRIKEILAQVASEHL

Molecule | fraction of the protein present in the complex [1] [%] | binding result (His-HMG20b)
BRCA2, P51587 1-3418 | < 5 | 
YSVIENSALAFYTSCSRKTSVSQTSLLEAKKWLRE (also: biotin label, position not given here) [Biotin-labelled BRC5 peptide (BRCA2 1661-1695)] |  | binds
